# B1: insulin-Fc fusion protein of SEQ ID NO: 96 (Fc fusion)
# chain: FVNQHLCGSHLVEALELVCGERGFHYGGGGGGSGGGGGIVEQCCTSTCSLDQLENYCGGGGGQGGGGQGGGGQGGGGGRCTDTPPCPVPEPLGGPSVLIFPPKPKDILRITRTPEVTCVVLDLGREDPEVQISWFVDGKEVHTAKTQSREQQFNGTYRVVSVLPIEHQDWLTGKEFKCRVNHIDLPSPIERTISKARGRAHKPSVYVLPPSPKELSSSDTVSITCLIKDFYPPDIDVEWQSNGQQEPERKHRMTPPQLDEDGSYFLYSKLSVDKSRWQQGDPFTCAVMHETLQNHYTDLSLSHSPG
# notes: purified on Protein A or Protein G
# B2: insulin-Fc fusion protein of SEQ ID NO: 36 (Fc fusion)
# chain: FVNQHLCGSHLVEALALVCGERGFHYGGGGGGSGGGGGIVEQCCTSTCSLDQLENYCGGGGGQGGGGQGGGGQGGGGGDCPKCPAPEMLGGPSVFIFPPKPKDTLLIARTPEVTCVVVDLDPEDPEVQISWFVDGKQMQTAKTQPREEQFSGTYRVVSVLPIGHQDWLKGKQFTCKVNNKALPSPIERTISKARGQAHQPSVYVLPPSREELSKNTVSLTCLIKDFFPPDIDVEWQSNGQQEPESKYRTTPPQLDEDGSYFLYSKLSVDKSRWQRGDTFICAVMHEALHNHYTQESLSHSPG
# notes: homodimer; also called cNg-S and B16A
# B3: insulin-Fc fusion protein of SEQ ID NO: 104 (Fc fusion)
# chain: FVNQHLCGSHLVEALELVCGERGFHYGGGGGGSGGGGGIVEQCCTSTCSLDQLENYCGGGGGQGGGGQGGGGQGGGGGDCPKCPAPEMLGGPSVFIFPPKPKDTLLIARTPEVTCVVVDLDPEDPEVQISWFVDGKQMQTAKTQPREEQFSGTYRVVSVLPIGHQDWLKGKQFTCKVNNKALPSPIERTISKARGQAHQPSVYVLPPSREELSKNTVSLTCLIKDFFPPDIDVEWQSNGQQEPESKYRTTPPQLDEDGSYFLYSKLSVDKSRWQRGDTFICAVMHEALHNHYTQESLSHSPG
# notes: 71% homodimer; also called cNg-NB151-S
# B4: insulin-Fc fusion protein of SEQ ID NO: 102 (Fc fusion)
# chain: FVNQHLCGSHLVEALELVCGERGFHYGGGGGGSGGGGGIVEQCCTSTCSLDQLENYCGGGGGQGGGGQGGGGQGGGGGDCPKCPAPEMLGGPSVFIFPPKPKDTLLIARTPEVTCVVVALDPEDPEVQISWFVDGKQMQTAKTQPREEQFSGTYRVVSVLPIGHQDWLKGKQFTCKVNNKALPSPIERTISKARGQAHQPSVYVLPPSREELSKNTVSLTCLIKDFFPPDIDVEWQSNGQQEPESKYRTTPPQLDEDGSYFLYSKLSVDKSRWQRGDTFICAVMHEALHNHYTQESLSHSPG
# notes: 73% homodimer; also called cNg-NB151-S, NB119-A
# Biological target: T1, biotinylated recombinant human Fc(gamma) receptor I (human, UniProt P12314 16-288, biotinylated (site not stated))
# T1 construct: Bought reagent, used as surrogate for canine/feline Fc(gamma)RI; also called rhFc(gamma) receptor I; Fc(gamma)RI
# T1 sequence (P12314 16-288 limits assumed): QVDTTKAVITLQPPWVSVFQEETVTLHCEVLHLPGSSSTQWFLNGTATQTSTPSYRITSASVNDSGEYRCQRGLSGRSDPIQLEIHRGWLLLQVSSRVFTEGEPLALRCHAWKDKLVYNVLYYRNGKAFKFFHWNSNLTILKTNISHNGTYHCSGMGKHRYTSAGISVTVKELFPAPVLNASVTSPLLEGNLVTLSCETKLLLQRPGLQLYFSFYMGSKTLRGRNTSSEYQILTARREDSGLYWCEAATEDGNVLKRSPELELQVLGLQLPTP
# Test: ELISA, fusion protein coated, biotinylated rhFc(gamma)RI at 3000 ng/mL, pH 7.4
# Procedure: The binding of insulin-Fc fusion proteins to the Fc(gamma) receptor I at pH 7.4 was conducted using an ELISA assay as follows. Since neither canine nor feline Fc(gamma) receptor I was not commercially available, human Fc(gamma) receptor I (i.e., rhFc(gamma) receptor I) was used as a surrogate mammalian receptor. Insulin-Fc compounds were diluted to 10 μg/mL in sodium bicarbonate buffer at pH 9.6 and coated on Maxisorp (Nunc) microtiter plates overnight at 4° C., after which the microplate strips were washed 5 times with PBST (PBS/0.05% Tween-20) buffer and blocked with Superblock blocking reagent (ThermoFisher). Serial dilutions of biotinylated rhFc(gamma) receptor I (recombinant human Fc(gamma)R-I; R&D Systems) were prepared in PBST/10% Superblock buffer from 6000 ng/mL to 8.2 ng/mL and loaded at 100 μL/well onto the microplate strips coated with insulin-Fc fusion protein. The microtiter plate was incubated for 1 hour at room temperature after which the microplate strips were washed 5 times with PBST and then loaded with 100 μL/well of streptavidin-HRP diluted 1:10000 in PBST/10% Superblock buffer. After incubating for 45 min, the microplate strips were washed again 5 times with PBST. TMB was added to reveal the bound Fc(gamma) receptor I proteins and stopped with ELISA stop reagent (Boston Bioproducts). The plate was read in an ELISA plate reader at 450 nm, and the OD values (proportional to the binding of rhFc(gamma) receptor I to insulin-Fc protein) were plotted against log concentrations of rhFc(gamma) receptor I added to each well to generate binding curves using GraphPad Prism software.
# Finally, select compounds were tested for their likelihood to interact with the immune system by measuring their Fc(gamma) receptor binding activity according to the procedure of Example 8. Table 19 compares the Fc(gamma) receptor I binding of these insulin-Fc fusion proteins with the Fc(gamma) receptor binding of the insulin-Fc fusion protein of SEQ ID NO: 52.
Binder,OD450 nm at a Fc(gamma)RI concentration of 3000 (ng/mL),Ratio to SEQ ID NO: 52
B1,0.253 OD450,0.53 ratio
B2,0.177 OD450,0.32 ratio
B3,0.175 OD450,0.32 ratio
B4,0.166 OD450,0.29 ratio
